Earlier results on one substance are cited in publication PMC7851832.

For the data set, the target named is FGFR2 (Homo sapiens) (UniProt P21802).
Chain of FGFR2 (Homo sapiens) (P21802 22-821): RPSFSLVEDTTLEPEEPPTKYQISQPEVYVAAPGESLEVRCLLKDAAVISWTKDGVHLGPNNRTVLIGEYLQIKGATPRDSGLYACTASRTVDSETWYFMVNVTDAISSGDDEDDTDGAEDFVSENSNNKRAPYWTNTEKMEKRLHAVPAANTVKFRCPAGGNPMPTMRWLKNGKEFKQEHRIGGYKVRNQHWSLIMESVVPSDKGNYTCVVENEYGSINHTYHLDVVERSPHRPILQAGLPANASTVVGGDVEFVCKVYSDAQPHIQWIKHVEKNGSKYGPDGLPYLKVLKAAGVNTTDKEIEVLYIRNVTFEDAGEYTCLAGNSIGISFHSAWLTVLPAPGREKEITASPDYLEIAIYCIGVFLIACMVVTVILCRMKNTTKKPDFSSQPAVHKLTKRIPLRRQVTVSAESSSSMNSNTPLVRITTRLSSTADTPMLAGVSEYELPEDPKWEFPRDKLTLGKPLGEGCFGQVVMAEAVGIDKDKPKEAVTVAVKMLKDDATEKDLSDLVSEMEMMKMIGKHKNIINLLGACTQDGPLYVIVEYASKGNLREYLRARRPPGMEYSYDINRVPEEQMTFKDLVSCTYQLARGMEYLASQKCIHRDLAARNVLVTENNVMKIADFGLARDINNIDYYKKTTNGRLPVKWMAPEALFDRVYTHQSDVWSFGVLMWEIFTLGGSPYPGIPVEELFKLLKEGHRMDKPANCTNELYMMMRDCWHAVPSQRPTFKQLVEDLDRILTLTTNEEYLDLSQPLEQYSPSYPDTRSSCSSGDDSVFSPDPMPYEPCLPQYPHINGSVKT

Chain of FGF1 (P05230 16-155): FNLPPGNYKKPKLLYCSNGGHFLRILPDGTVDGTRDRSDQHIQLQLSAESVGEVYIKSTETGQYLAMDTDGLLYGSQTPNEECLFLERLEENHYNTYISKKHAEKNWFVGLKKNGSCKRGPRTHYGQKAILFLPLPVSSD

As a reminder, the Kd is the free concentration of one partner at which half of the binding sites on the other are occupied at equilibrium, for simple one-to-one binding. Consider FGF1 (from UniProt P05230), for which the Kd was 300 nM.
